According to patent US20220323561A1 (ENTEROME S A, published 2022):

Columns and labels:
[1] = biological target: T1, HLA-A*0201 molecule expressed on human T2 cells (human); assay: T2 cells (HLA-A*0201), peptide at 100 µM, anti-HLA-A2 flow cytometry
T1 construct: also called HLA-A2
Procedure: (§1) T2 cells (5.104 cells per well) are incubated with decreasing concentrations of peptides from 100 μM to 0.1 μM (4 points: 100 μM, 10 μM, 1 μM, 0.1 μM) in serum-free medium (TexMacs) supplemented with […] of β2 Microglobulin at 37° C. for 16 hours. Cells are then washed two times and marked with the anti-HLA-A2 antibody coupled to PE (clone BB7.2, BD Pharmagen).
(§2) The relative affinity is then determined as follows: […]

[2] = biological target: T1, HLA-A*0201 molecule expressed on human …; assay: T2 cells (HLA-A*0201), peptide at 10 µM, anti-HLA-A2 flow cytometry
Procedure: as §1, §2

[3] = biological target: T1, HLA-A*0201 molecule expressed on human …; assay: T2 cells (HLA-A*0201), peptide at 1 µM, anti-HLA-A2 flow cytometry
Procedure: as §1, §2

[4] = biological target: T1, HLA-A*0201 molecule expressed on human …; assay: T2 cells (HLA-A*0201), peptide titration, anti-HLA-A2 flow cytometry
Procedure: as §1, §2

[5] = biological target: T1, HLA-A*0201 molecule expressed on human …; assay: T2 cells (HLA-A*0201), peptide at 0.1 µM, anti-HLA-A2 flow cytometry
Procedure: as §1, §2

[6] = biological target: T1, HLA-A*0201 molecule expressed on human …; assay: T2 cells (HLA-A*0201), anti-HLA-A2 flow cytometry

Row | Binder | mean relative fluorescence intensity (HIV peptide = 100) [1] | mean relative fluorescence intensity (HIV peptide = 100) [2] | mean relative fluorescence intensity (HIV peptide = 100) [3] | concentration of peptide that induces 20% of HLA-A2 expression [4] | in vitro binding affinity (relative to HIV pol reference peptide) [4] | mean relative fluorescence intensity (HIV peptide = 100) [5] | binding result [6]
1 | FLLFLTPME [CD19-H2] | 7 % of HIV pol 589-597 at 100 µM | 7 % of HIV pol 589-597 at 100 µM | 3 % of HIV pol 589-597 at 100 µM | – | – | – | –
2 | LLFGAPALL (also called TNFRSF13-H1) [TNFRSF13C-H1] | 92 % of HIV pol 589-597 at 100 µM | 17 % of HIV pol 589-597 at 100 µM | 2 % of HIV pol 589-597 at 100 µM | 11.8 µM | 3 ratio to HIV pol 589-597 | 0 % of HIV pol 589-597 at 100 µM | –
3 | GLAFVPLQI [CD37-H1] | 153 % of HIV pol 589-597 at 100 µM | 27 % of HIV pol 589-597 at 100 µM | 0 % of HIV pol 589-597 at 100 µM | 7.35 µM | 17.5 ratio to HIV pol 589-597 | 2 % of HIV pol 589-597 at 100 µM | –
4 | LMIPAGIYA [MS4A1-H3] | 92.6 % of HIV pol 589-597 at 100 µM | 35.7 % of HIV pol 589-597 at 100 µM | 0.9 % of HIV pol 589-597 at 100 µM | 4.83 µM | 0.5 ratio to HIV pol 589-597 | 0 % of HIV pol 589-597 at 100 µM | –
5 | IMNSLSLFA [MS4A1-H4] | 13.4 % of HIV pol 589-597 at 100 µM | 2.6 % of HIV pol 589-597 at 100 µM | 0.3 % of HIV pol 589-597 at 100 µM | – | – | 0 % of HIV pol 589-597 at 100 µM | –
6 | WVFEHPETL [CD22-H1] | 158 % of HIV pol 589-597 at 100 µM | 71 % of HIV pol 589-597 at 100 µM | 10 % of HIV pol 589-597 at 100 µM | 1.97 µM | 5.3 ratio to HIV pol 589-597 | 2 % of HIV pol 589-597 at 100 µM | –
7 | ILPGLLFGL [TNFRSF13C-B31] | 104 % of HIV pol 589-597 at 100 µM | 71.9 % of HIV pol 589-597 at 100 µM | 1.5 % of HIV pol 589-597 at 100 µM | 1.6 µM | 0.4 ratio to HIV pol 589-597 | 0 % of HIV pol 589-597 at 100 µM | –
8 | ILIPAGIYL [MS4A1-B3] | 88.8 % of HIV pol 589-597 at 100 µM | 87.8 % of HIV pol 589-597 at 100 µM | 17.8 % of HIV pol 589-597 at 100 µM | 0.7 µM | 0.1 ratio to HIV pol 589-597 | 1.9 % of HIV pol 589-597 at 100 µM | –
9 | TLAYLIFCL [CD19-H6] | – | 39.6 % of HIV pol 589-597 at 100 µM | 4.1 % of HIV pol 589-597 at 100 µM | 4.98 µM | 0.5 ratio to HIV pol 589-597 | 0 % of HIV pol 589-597 at 100 µM | –
10 | LMFGAPALV [TNFRSF13C-B1] | 90 % of HIV pol 589-597 at 100 µM | 37 % of HIV pol 589-597 at 100 µM | 7 % of HIV pol 589-597 at 100 µM | 4.35 µM | 1.1 ratio to HIV pol 589-597 | 1 % of HIV pol 589-597 at 100 µM | –
11 | LIFEHPERV [CD22-B12] | – | – | – | – | – | – | binds
12 | LQMGGFYLL [CD19-B7] | 31.8 % of HIV pol 589-597 at 100 µM | 4.5 % of HIV pol 589-597 at 100 µM | 4.8 % of HIV pol 589-597 at 100 µM | 49.6 µM | 6.8 ratio to HIV pol 589-597 | 6 % of HIV pol 589-597 at 100 µM | –
13 | GMAFVPLLL (also called CD37-B11i) [CD37-B11] | 57.8 % of HIV pol 589-597 at 100 µM | 48.9 % of HIV pol 589-597 at 100 µM | 1.6 % of HIV pol 589-597 at 100 µM | 2.3 µM | 3 ratio to HIV pol 589-597 | 0 % of HIV pol 589-597 at 100 µM | –
14 | YLAYLIFEL [CD19-B6] | – | 52.5 % of HIV pol 589-597 at 100 µM | 5.4 % of HIV pol 589-597 at 100 µM | 3.76 µM | 0.4 ratio to HIV pol 589-597 | 0 % of HIV pol 589-597 at 100 µM | –
15 | LLVGILHLV [CD19-B1] | 93 % of HIV pol 589-597 at 100 µM | 40 % of HIV pol 589-597 at 100 µM | 8 % of HIV pol 589-597 at 100 µM | 3.7 µM | 0.7 ratio to HIV pol 589-597 | – | –
16 | SLVGILHLQ [CD19-H1] | 0 % of HIV pol 589-597 at 100 µM | 1 % of HIV pol 589-597 at 100 µM | 0 % of HIV pol 589-597 at 100 µM | – | – | 1 % of HIV pol 589-597 at 100 µM | –
17 | YILGGLLMV [MS4A1-B12] | 42 % of HIV pol 589-597 at 100 µM | 7.6 % of HIV pol 589-597 at 100 µM | 1.1 % of HIV pol 589-597 at 100 µM | 31.2 µM | 3.5 ratio to HIV pol 589-597 | 1.2 % of HIV pol 589-597 at 100 µM | –
18 | AMNSLSLYI [MS4A1-B4] | 115 % of HIV pol 589-597 at 100 µM | 13.1 % of HIV pol 589-597 at 100 µM | 1.9 % of HIV pol 589-597 at 100 µM | 12.3 µM | 2.1 ratio to HIV pol 589-597 | 0.5 % of HIV pol 589-597 at 100 µM | –
19 | YLFLGILSL [MS4A1-B5] | – | 29.8 % of HIV pol 589-597 at 100 µM | 0.2 % of HIV pol 589-597 at 100 µM | 6.77 µM | 0.7 ratio to HIV pol 589-597 | 0 % of HIV pol 589-597 at 100 µM | –
20 | TLLFLTPML [CD19-B2] | – | 114 % of HIV pol 589-597 at 100 µM | 41 % of HIV pol 589-597 at 100 µM | 0.38 µM | 1 ratio to HIV pol 589-597 | 12 % of HIV pol 589-597 at 100 µM | –
21 | YVFEHPELL [CD22-B11] | 141 % of HIV pol 589-597 at 100 µM | 124 % of HIV pol 589-597 at 100 µM | 60.5 % of HIV pol 589-597 at 100 µM | 0.2 µM | 0.5 ratio to HIV pol 589-597 | 6.4 % of HIV pol 589-597 at 100 µM | –
22 | SLVGILHII [CD19-B11] | 108 % of HIV pol 589-597 at 100 µM | 30.5 % of HIV pol 589-597 at 100 µM | 5.2 % of HIV pol 589-597 at 100 µM | 5.97 µM | 0.8 ratio to HIV pol 589-597 | 0 % of HIV pol 589-597 at 100 µM | –
23 | IALGGLLMI [MS4A1-H1] | – | 1.9 % of HIV pol 589-597 at 100 µM | 0.7 % of HIV pol 589-597 at 100 µM | – | – | 0 % of HIV pol 589-597 at 100 µM | –
24 | ILNSLSLLL [MS4A1-B41] | – | – | – | 2.45 µM | 0.3 ratio to HIV pol 589-597 | – | –
25 | FMPGLLFGA [TNFRSF13C-B33] | 99.6 % of HIV pol 589-597 at 100 µM | 15.5 % of HIV pol 589-597 at 100 µM | 1.3 % of HIV pol 589-597 at 100 µM | 13.2 µM | 3.5 ratio to HIV pol 589-597 | 0 % of HIV pol 589-597 at 100 µM | –
26 | PLPGLLFGA [TNFRSF13C-H3] | 8.4 % of HIV pol 589-597 at 100 µM | 0 % of HIV pol 589-597 at 100 µM | 0 % of HIV pol 589-597 at 100 µM | – | – | 0 % of HIV pol 589-597 at 100 µM | –
27 | FLAFVPLQL (also called CD37-B1i) [CD37-B1] | 157 % of HIV pol 589-597 at 100 µM | 106 % of HIV pol 589-597 at 100 µM | 35 % of HIV pol 589-597 at 100 µM | 0.65 µM | 1.6 ratio to HIV pol 589-597 | 5 % of HIV pol 589-597 at 100 µM | –
